Results reported in US20180135109, “EVALUATION OF CAS9 MOLECULE/GUIDE RNA MOLECULE COMPLEXES” (EDITAS MEDICINE, INC., published 2018).

Target: Cas9 (Streptococcus pyogenes, UniProt Q99ZW2 SEQ:1-1368)
Test: DSF, no thermal shift with alien gRNA; 10 mM Hepes pH 7.5, 150 mM NaCl; 1 uM gRNA
Settings: gRNA scaffold; printed as encoding DNA
Method: DSF was also used to examine Cas9 molecule/gRNA molecule complexes. S. pyogenes Cas9 alone, S. pyogenes Cas9 with 1 μM S. pyogenes gRNA, and S. pyogenes Cas9 with 1 μM S. aureus gRNA were tested in H150 (10 mM Hepes pH 7.5, 150 mM NaCl). The DNA sequences encoding the gRNA molecules used in these experiments were: […]

Sequence of Cas9 (Q99ZW2 whole entry): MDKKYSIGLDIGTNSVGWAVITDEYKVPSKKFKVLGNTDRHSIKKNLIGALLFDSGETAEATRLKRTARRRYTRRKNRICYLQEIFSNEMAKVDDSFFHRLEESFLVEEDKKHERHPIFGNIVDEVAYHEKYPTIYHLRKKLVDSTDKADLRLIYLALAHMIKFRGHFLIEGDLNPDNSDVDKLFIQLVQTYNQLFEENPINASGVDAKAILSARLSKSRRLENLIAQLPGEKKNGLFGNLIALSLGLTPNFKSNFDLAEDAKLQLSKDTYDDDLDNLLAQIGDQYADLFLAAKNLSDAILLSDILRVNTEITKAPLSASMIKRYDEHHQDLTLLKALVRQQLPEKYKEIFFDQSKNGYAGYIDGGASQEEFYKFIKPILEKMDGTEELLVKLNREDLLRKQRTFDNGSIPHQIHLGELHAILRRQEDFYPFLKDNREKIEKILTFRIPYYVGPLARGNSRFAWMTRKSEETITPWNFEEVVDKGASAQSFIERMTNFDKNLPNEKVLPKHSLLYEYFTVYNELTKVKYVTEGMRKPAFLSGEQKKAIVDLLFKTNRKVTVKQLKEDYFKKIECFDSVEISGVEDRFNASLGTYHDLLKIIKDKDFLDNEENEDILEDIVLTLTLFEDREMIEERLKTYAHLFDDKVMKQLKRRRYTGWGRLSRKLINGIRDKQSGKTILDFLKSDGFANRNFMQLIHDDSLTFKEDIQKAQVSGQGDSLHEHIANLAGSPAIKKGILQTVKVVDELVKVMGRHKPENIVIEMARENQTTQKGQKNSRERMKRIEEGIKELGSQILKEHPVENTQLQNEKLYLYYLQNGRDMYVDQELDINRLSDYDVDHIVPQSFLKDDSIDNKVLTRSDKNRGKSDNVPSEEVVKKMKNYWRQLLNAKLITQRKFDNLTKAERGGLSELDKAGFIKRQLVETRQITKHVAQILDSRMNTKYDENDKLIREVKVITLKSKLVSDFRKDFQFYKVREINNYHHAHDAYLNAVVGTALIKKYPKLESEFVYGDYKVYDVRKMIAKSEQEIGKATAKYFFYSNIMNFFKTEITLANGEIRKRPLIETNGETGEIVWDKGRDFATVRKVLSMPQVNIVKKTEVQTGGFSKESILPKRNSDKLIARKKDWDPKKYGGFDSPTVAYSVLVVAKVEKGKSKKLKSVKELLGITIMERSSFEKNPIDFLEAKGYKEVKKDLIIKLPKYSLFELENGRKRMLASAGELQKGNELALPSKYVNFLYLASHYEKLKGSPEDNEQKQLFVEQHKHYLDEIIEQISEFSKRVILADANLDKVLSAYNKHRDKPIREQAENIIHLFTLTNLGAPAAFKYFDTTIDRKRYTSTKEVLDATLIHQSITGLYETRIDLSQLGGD

B1: S. aureus gRNA scaffold (ssRNA)
RNA: GUUUUAGUACUCUGGAAACAGAAUCUACUAAAACAAGGCAAAAUGCCGUGUUUAUCUCGUCAACUUGUUGGCGAGAUUUU
binding result: no binding
